From patent publication US20230381281A1, “PHARMACEUTICAL COMPOSITION COMPRISING GLUCAGON/GLP-1/GIP TRIPLE AGONIST OR LONG-ACTING CONJUGATE THEREOF FOR PREVENTING OR TREATING LUPUS-RELATED DISEASES” (HANMI PHARM. CO., LTD., priority 2020, published 2023)
Bridge positions count the residues as written; N and C are the ends. Square brackets hold non-standard residues; d marks the D form. Ends that are not written are not given here. * marks the point of attachment. Acetyl(2-(4-imidazolyl)) = O=C(Cc1c[nH]cn1)*; Aib = CC(C)(N)C(=O)O

Experiments:
Test in all cases: cell-based or functional assay
human GLP-1 receptor = human GLP-1 receptor (human, UniProt P43220 24-463)
human GCG receptor = human GCG receptor (human, UniProt P47871 26-477)
human GCG receptor, sequence (P47871 26-477): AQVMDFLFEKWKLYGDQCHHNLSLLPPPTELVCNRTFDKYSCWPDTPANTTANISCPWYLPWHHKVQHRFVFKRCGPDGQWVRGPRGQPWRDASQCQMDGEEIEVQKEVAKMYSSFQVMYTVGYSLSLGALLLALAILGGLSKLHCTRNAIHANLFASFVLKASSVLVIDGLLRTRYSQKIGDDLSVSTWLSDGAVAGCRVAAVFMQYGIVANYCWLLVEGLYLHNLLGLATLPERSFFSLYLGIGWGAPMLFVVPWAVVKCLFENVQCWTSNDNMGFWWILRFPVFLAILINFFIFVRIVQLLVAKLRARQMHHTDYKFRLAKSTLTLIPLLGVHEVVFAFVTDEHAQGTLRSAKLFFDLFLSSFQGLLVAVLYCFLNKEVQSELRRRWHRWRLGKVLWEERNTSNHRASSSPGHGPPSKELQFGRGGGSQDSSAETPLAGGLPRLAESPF

human GIP receptor = target: T1, human GIP receptor (human, UniProt P48546 22-466)
T1 sequence (looked up): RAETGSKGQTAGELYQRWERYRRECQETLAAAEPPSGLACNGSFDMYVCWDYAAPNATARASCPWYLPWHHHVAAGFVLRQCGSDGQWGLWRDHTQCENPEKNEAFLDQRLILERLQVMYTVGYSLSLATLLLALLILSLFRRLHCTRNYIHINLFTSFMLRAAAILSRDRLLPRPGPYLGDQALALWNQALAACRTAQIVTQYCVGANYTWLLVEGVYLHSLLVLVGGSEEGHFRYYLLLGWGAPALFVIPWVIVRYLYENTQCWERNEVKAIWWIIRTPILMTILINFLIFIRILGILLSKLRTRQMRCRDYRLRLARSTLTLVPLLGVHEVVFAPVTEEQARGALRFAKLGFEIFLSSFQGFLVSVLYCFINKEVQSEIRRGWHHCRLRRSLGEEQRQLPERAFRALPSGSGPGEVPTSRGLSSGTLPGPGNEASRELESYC

For {Acetyl(2-(4-imidazolyl))}-[Aib]EGTFTSDYSIAMDEIHQKDFVDWLLAEKC (bridge 15-19) [Triple agonist of SEQ ID NO: 91], the “In vitro activity compared to native peptide (%) vs GLP-1” value (“In vitro activity … (%) vs GLP-1” for short) (human GLP-1 receptor) was 31.9%, the “In vitro activity compared to native peptide (%) vs Glucagon” value (“In vitro activity … (%) vs Glucagon” for short) (human GCG receptor) was 16.8% and the “In vitro activity compared to native peptide (%) vs GIP” value (“In vitro activity … (%) vs GIP” below) (human GIP receptor) was 0.3%.

With Y[Aib]QGTFTSDYSKYLDEKRAKEFVQWLLDCHPSSGQPPPS (bridge 16-20) [Triple agonist of SEQ ID NO: 97] the “In vitro activity … (%) vs GLP-1” value (human GLP-1 receptor) was 10.5%, the “In vitro activity … (%) vs Glucagon” value (human GCG receptor) was 62.8% and the “In vitro activity … (%) vs GIP” value (human GIP receptor) was 2.6%.

For {Acetyl(2-(4-imidazolyl))}-[Aib]EGTFTSDYSIAMDEIHQKDFVDWLLAEC (bridge 15-19) [Triple agonist of SEQ ID NO: 84], the “In vitro activity … (%) vs GLP-1” value (human GLP-1 receptor) was 4.2%, the “In vitro activity … (%) vs Glucagon” value (human GCG receptor) was less than 0.1% and the “In vitro activity … (%) vs GIP” value (human GIP receptor) was less than 0.1%.

In the case of {Acetyl(2-(4-imidazolyl))}-[Aib]EGTFTSDYSIAMDEIHQKDFVNWLLAQKC (bridge 15-19) [Triple agonist of SEQ ID NO: 90], the “In vitro activity … (%) vs GLP-1” value (human GLP-1 receptor) is reported as 7.4%, the “In vitro activity … (%) vs Glucagon” value (human GCG receptor) is reported as less than 0.1% and the “In vitro activity … (%) vs GIP” value (human GIP receptor) is reported as less than 0.1%.

For {Acetyl(2-(4-imidazolyl))}-[Aib]QGTFTSDYSIAMDEIHQKDFVNWLLNTKC (bridge 15-19) [Triple agonist of SEQ ID NO: 94], the “In vitro activity … (%) vs GLP-1” value (human GLP-1 receptor) was 0.5%, the “In vitro activity … (%) vs Glucagon” value (human GCG receptor) was less than 0.1% and the “In vitro activity … (%) vs GIP” value (human GIP receptor) was less than 0.1%.

For Y[Aib]QGTFTSDYSKYLDEKRAKEFVQWLLCHHPSSGQPPPS (bridge 16-20) [Triple agonist of SEQ ID NO: 95], the “In vitro activity … (%) vs GLP-1” value (human GLP-1 receptor) was 2.1%, the “In vitro activity … (%) vs Glucagon” value (human GCG receptor) was 0.4% and the “In vitro activity … (%) vs GIP” value (human GIP receptor) was less than 0.1%.

{Acetyl(2-(4-imidazolyl))}-[Aib]QGTFTSDYSKYLDEKRQKEFVQWLLNTKC (bridge 15-19) [Triple agonist of SEQ ID NO: 88] was tested, and the “In vitro activity … (%) vs GLP-1” value (human GLP-1 receptor) was 9.6%, the “In vitro activity … (%) vs Glucagon” value (human GCG receptor) was 0.3% and the “In vitro activity … (%) vs GIP” value (human GIP receptor) was less than 0.1%.

With {Acetyl(2-(4-imidazolyl))}-[Aib]QGTFTSDYSIAMDEIHQKDFVNWLLAQC (bridge 15-19) [Triple agonist of SEQ ID NO: 85] the “In vitro activity … (%) vs GLP-1” value (human GLP-1 receptor) was 4.3%, the “In vitro activity … (%) vs Glucagon” value (human GCG receptor) was less than 0.1% and the “In vitro activity … (%) vs GIP” value (human GIP receptor) was 0.3%.

In the case of Y[Aib]QGTFTSDYSKYLDEKRAKEFVQWLLDHCPSSGQPPPS (bridge 16-20) [Triple agonist of SEQ ID NO: 96], the “In vitro activity … (%) vs GLP-1” value (human GLP-1 receptor) is reported as 34.4%, the “In vitro activity … (%) vs Glucagon” value (human GCG receptor) is reported as 195% and the “In vitro activity … (%) vs GIP” value (human GIP receptor) is reported as 5.2%.

With H[Aib]QGTFTSDVSKYLDGQAAQEFVAWLLAGGGPSSGAPPPSC [Triple agonist of SEQ ID NO: 10] the “In vitro activity … (%) vs GLP-1” value (human GLP-1 receptor) was 46%, the “In vitro activity … (%) vs Glucagon” value (human GCG receptor) was less than 0.1% and the “In vitro activity … (%) vs GIP” value (human GIP receptor) was less than 0.1%.

With H[Aib]QGTFTSDVSKYLDGQAAQEFVAWLLAGC [Triple agonist of SEQ ID NO: 9] the “In vitro activity … (%) vs GLP-1” value (human GLP-1 receptor) was 32.1%, the “In vitro activity … (%) vs Glucagon” value (human GCG receptor) was 0.13% and the “In vitro activity … (%) vs GIP” value (human GIP receptor) was less than 0.1%.

For Y[Aib]QGTFTSDYSKALDEKAAKEFVNWLLDHHPSSGQPPPSC (bridge 16-20) [Triple agonist of SEQ ID NO: 98], the “In vitro activity … (%) vs GLP-1” value (human GLP-1 receptor) was 28.1%, the “In vitro activity … (%) vs Glucagon” value (human GCG receptor) was 8.2% and the “In vitro activity … (%) vs GIP” value (human GIP receptor) was 47.1%.

For {Acetyl(2-(4-imidazolyl))}-[Aib]QGTFTSDYSKYLDEKRQKEFVNWLLAQKC (bridge 15-19) [Triple agonist of SEQ ID NO: 93], the “In vitro activity … (%) vs GLP-1” value (human GLP-1 receptor) was 5.7%, the “In vitro activity … (%) vs Glucagon” value (human GCG receptor) was 0.3% and the “In vitro activity … (%) vs GIP” value (human GIP receptor) was 0.7%.

In the case of {Acetyl(2-(4-imidazolyl))}-[Aib]QGTFTSDYSKYLDEKRQKEFVQWLLDTC (bridge 15-19) [Triple agonist of SEQ ID NO: 82], the “In vitro activity … (%) vs GLP-1” value (human GLP-1 receptor) is reported as 9.5%, the “In vitro activity … (%) vs Glucagon” value (human GCG receptor) is reported as 1.1% and the “In vitro activity … (%) vs GIP” value (human GIP receptor) is reported as less than 0.1%.

{Acetyl(2-(4-imidazolyl))}-[Aib]QGTFTSDYSKYLDEKRQKEFVQWLLDTKC (bridge 15-19) [Triple agonist of SEQ ID NO: 89] was tested, and the “In vitro activity … (%) vs GLP-1” value (human GLP-1 receptor) was 7.1%, the “In vitro activity … (%) vs Glucagon” value (human GCG receptor) was 0.7% and the “In vitro activity … (%) vs GIP” value (human GIP receptor) was less than 0.1%.

Y[Aib]QGTFTSDYSKALDEKAAKEFVQWLLDQHPSSGQPPPSC (bridge 16-20) [Triple agonist of SEQ ID NO: 100] was tested, and the “In vitro activity … (%) vs GLP-1” value (human GLP-1 receptor) was 42.2%, the “In vitro activity … (%) vs Glucagon” value (human GCG receptor) was 12.7% and the “In vitro activity … (%) vs GIP” value (human GIP receptor) was 118%.

For {Acetyl(2-(4-imidazolyl))}-[Aib]QGTFTSDYSIAMDEIHQKDFVNWLLAQKC (bridge 15-19) [Triple agonist of SEQ ID NO: 92], the “In vitro activity … (%) vs GLP-1” value (human GLP-1 receptor) was 0.8%, the “In vitro activity … (%) vs Glucagon” value (human GCG receptor) was less than 0.1% and the “In vitro activity … (%) vs GIP” value (human GIP receptor) was 0.4%.

For {Acetyl(2-(4-imidazolyl))}-[Aib]QGTFTSDYSIAMDEIHQKDFVNWLLNTC (bridge 15-19) [Triple agonist of SEQ ID NO: 87], the “In vitro activity … (%) vs GLP-1” value (human GLP-1 receptor) was 0.9%, the “In vitro activity … (%) vs Glucagon” value (human GCG receptor) was less than 0.1% and the “In vitro activity … (%) vs GIP” value (human GIP receptor) was less than 0.1%.

With {Acetyl(2-(4-imidazolyl))}-[Aib]EGTFTSDYSIAMDEIHQKDFVNWLLAQC (bridge 15-19) [Triple agonist of SEQ ID NO: 83] the “In vitro activity … (%) vs GLP-1” value (human GLP-1 receptor) was 47.3%, the “In vitro activity … (%) vs Glucagon” value (human GCG receptor) was 1.3% and the “In vitro activity … (%) vs GIP” value (human GIP receptor) was 0.4%.

In the case of Y[Aib]QGTFTSDYSKALDEKAAKDFVNWLLDHHPSSGQPPPSC (bridge 16-20) [Triple agonist of SEQ ID NO: 99], the “In vitro activity … (%) vs GLP-1” value (human GLP-1 receptor) is reported as 20.9%, the “In vitro activity … (%) vs Glucagon” value (human GCG receptor) is reported as 14.9% and the “In vitro activity … (%) vs GIP” value (human GIP receptor) is reported as 57.7%.

With {Acetyl(2-(4-imidazolyl))}-[Aib]QGTFTSDYSKYLDEKRQKEFVQWLLNTC (bridge 15-19) [Triple agonist of SEQ ID NO: 81] the “In vitro activity … (%) vs GLP-1” value (human GLP-1 receptor) was 7.8%, the “In vitro activity … (%) vs Glucagon” value (human GCG receptor) was 0.3% and the “In vitro activity … (%) vs GIP” value (human GIP receptor) was less than 0.1%.

With {Acetyl(2-(4-imidazolyl))}-[Aib]QGTFTSDYSKYLDEKRQKEFVNWLLAQC (bridge 15-19) [Triple agonist of SEQ ID NO: 86] the “In vitro activity … (%) vs GLP-1” value (human GLP-1 receptor) was 28.4%, the “In vitro activity … (%) vs Glucagon” value (human GCG receptor) was 0.4% and the “In vitro activity … (%) vs GIP” value (human GIP receptor) was 0.2%.
